According to US20160102123A1:

How the values were obtained:
[1] = molecular target: A2_F24 VI56IV (RSV A2) (UniProt P03420); assay: Octet BLI endpoint, CR9501 on sensor, culture supernatant
[2] = molecular target: B1_N67I, S215P loop (RSV B1) (UniProt O36634); assay: quantitative Octet, CR9501 on sensor, culture supernatant
[3] = molecular target: B1_N67I, S215P (RSV B1) (UniProt O36634); assay: as above

## CR9501 (antibody)
[1]
  % CR9501 binding after 5 days at 4 C relative to day 1: 54%
[2]
  % concentration measured with CR9501 after 5 days at 4 C relative to day of harvest: 108%
[3]
  % concentration measured with CR9501 after 5 days at 4 C relative to day of harvest: 90.9%
